Laboratory results: patent US20130202598

Tests used:
[1] = tested on: PE-DTA-cleavage site-defensin (P6-P4' NS5A/B site of genotype 1b/1a)
[2] = tested on: PE-DTA-mutated cleavage site-defensin

recombinant MBP-scNS3 fusion
in vitro cleavage by NS3 (immunoblot with anti-PE antibodies) [1]: complete cleavage of the chimeric toxin | in vitro cleavage by NS3 (immunoblot with anti-PE antibodies) [2]: resistant to cleavage by NS3
